Test results as given in PMC3404820.

Target: amphiphilic diblock polypeptide (ADP) derived from elastin-mimetic sequences, unlabeled
Assay: dynamic light scattering

B1: amphiphilic diblock polypeptide (ADP) derived from elastin-mimetic sequences, unlabeled (protein)
chain: VPGVGVPGEGVPGVGVPGEGVPGVGVPGVGVPGEGVPGVGVPGEGVPGVGVPGVGVPGEGVPGVGVPGEGVPGVGVPGVGVPGEGVPGVGVPGEGVPGVGVPGVGVPGEGVPGVGVPGEGVPGVGVPGVGVPGEGVPGVGVPGEGVPGVGVPGVGVPGEGVPGVGVPGEGVPGVGVPGVGVPGEGVPGVGVPGEGVPGVGVPGVGVPGEGVPGVGVPGEGVPGVGVPGVGVPGEGVPGVGVPGEGVPGVGIPGVGIPGVGVPGYGIPGVGIPGVGIPGVGIPGVGVPGYGIPGVGIPGVGIPGVGIPGVGVPGYGIPGVGIPGVGIPGVGIPGVGVPGYGIPGVGIPGVGIPGVGIPGVGVPGYGIPGVGIPGVGIPGVGIPGVGVPGYGIPGVGIPGVGIPGVGIPGVGVPGYGIPGVGIPGVGIPGVGIPGVGVPGYGIPGVGIPGVGIPGVGIPGVGVPGYGIPGVGIPGVGIPGVGIPGVGVPGYGIPGVGIPGVGIPGVGIPGVGVPGYGIPGVGIPGVGIPGVGIPGVGVPGYGIPGVGIPGVGIPGVGIPGVGVPGYGIPGVGIPGVGIPGVGIPGVGVPGYGIPGVGIPGVGIPGVGIPGVGVPGYGIPGVGIPGVG
modifications: not checked
stoichiometry N (chains per micelle): 106
